Patent publication US20240109955A1

Legend:
Experiment in all cases: cell-based or functional assay
[1] = target: SARS-CoV-2 Omicron BA.2.75.2 spike protein (SARS-CoV-2)
[2] = target: SARS-CoV-2 Omicron BA.4.6 spike protein (SARS-CoV-2)
[3] = target: SARS-CoV-2 Omicron BA.4/5 spike protein (SARS-CoV-2)
[4] = target: SARS-CoV-2 Omicron BF.7 spike protein (SARS-CoV-2)
[5] = target: SARS-CoV-2 Omicron BQ.1 spike protein (SARS-CoV-2)
[6] = target: SARS-CoV-2 Omicron BQ.1.1 spike protein (SARS-CoV-2)
[7] = target: SARS-CoV-2 Omicron XBB spike protein (SARS-CoV-2)

B1: MX1041 (bispecific antibody)
chain: QTVVTQEPSFSVSPGGTVTLTCGLSSGSVSTAYFPSWYQQTPGQAPRTLIYGTNTRSSGVPDRFSGSILGNKAALTITGAQADDESDYYCVLYMGRGIVVFGGGTKLTVLGGSSGEIVLTQSPGTLSLSPGETATLSCRASQSFSSDLAWYQQKPGQAPRLLIYGASSRATGIPDRFSGSGSGTDFTLTISRLEPADFAVYYCQQYGSSPPVTFGGGTKVEIKGGGGSGGSGSGGGGSASGSGEVQLVESGGGLIQPGGSLRLSCAASGVIVSYNYMNWVRQAPGKGLEWVSVIYSGGSTFYADSVRGRFTISRDNSKNTLYLQMNSLRAEDTAVYYCARDLGPAGAFDIWGLGTMVTVSSGGSSGQVQLVESGGGVVQPGRSLRLSCAASGFTLSSYGMHWVRQAPGKGLEWVAVISYDGSNKYYVDSVKGRFTISRDNSKNTLYLQMNSLRAEDTAVYYCRWAYWELLPDYYYGMDVWGQGTTVTVSSASGGSGDKTHTCPPCPAPELLGGPSVFLFPPKPKDTLMISRTPEVTCVVVDVSHEDPEVKFNWYVDGVEVHNAKTKPREEQYNSYVVSVLTVLHQDWLNGKEYKCKVSNKALPAPIEKTISKAKGQPREPQVYTLPPSRDELTKNQVSLTCLVKGFYPSDIAVEWESNGQPENNYKTTPPVLDSDGSFFKKLTVDKSRWQQGNVFSCSVLHEALHSHYTQKSLSLSPG
Binder B1 has an IC50, pseudovirus neutralization [1] of 0.0129 µg/mL, an IC80, pseudovirus neutralization [1] of 0.0362 µg/mL and an IC50, pseudovirus neutralization [2] of 0.0257 µg/mL. It also gave an IC80, pseudovirus neutralization [2] of 0.0671 µg/mL, an IC50, pseudovirus neutralization [3] of 0.012 µg/mL and an IC80, pseudovirus neutralization [3] of 0.0262 µg/mL. It also gave an IC50, pseudovirus neutralization [4] of 0.00835 µg/mL, an IC80, pseudovirus neutralization [4] of 0.0304 µg/mL and an IC50, pseudovirus neutralization [5] of 0.0429 µg/mL. For the same binder, the IC80, pseudovirus neutralization [5] was 0.188 µg/mL, the IC50, pseudovirus neutralization [6] was 0.0493 µg/mL and the IC80, pseudovirus neutralization [6] was 0.11 µg/mL. The IC50, pseudovirus neutralization [7] was 0.0691 µg/mL and the IC80, pseudovirus neutralization [7] was 0.398 µg/mL.
